Test results as given in PMC11870197.

Experiments:
Assay in all cases: EMSA
6xHis-PhoP~P [1] = molecular target: T1, 6xHis-PhoP~P (Lacticaseibacillus paracasei BL23, UniProt Q03AN9 1-235)
T1 sequence: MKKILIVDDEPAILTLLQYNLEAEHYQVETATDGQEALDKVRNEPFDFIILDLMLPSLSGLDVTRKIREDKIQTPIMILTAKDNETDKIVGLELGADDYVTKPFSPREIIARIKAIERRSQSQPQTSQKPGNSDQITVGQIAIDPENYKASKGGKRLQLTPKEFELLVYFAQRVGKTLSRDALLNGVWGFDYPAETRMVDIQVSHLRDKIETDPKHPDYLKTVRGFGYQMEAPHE

6xHis-PhoP = molecular target: T2, 6xHis-PhoP (Lacticaseibacillus paracasei BL23, UniProt Q03AN9 1-235)
T2 sequence: T1 sequence

6xHis-PhoP~P [2] = molecular target: T1, 6xHis-PhoP~P; remark: listed apart in the source

B1: glnA promoter fragment (dsDNA)
DNA 1: TGCCAAATTAGTGACGCTATTTGCAAATTCCCCCGCGACAATTTTTAGACAATCTTTCCTTTTATTTAAAATCATGTAACATTAGGGCCGAACGATACATATGTAACGGTGTTTTTTAACC
DNA 2: GGTTAAAAAACACCGTTACATATGTATCGTTCGGCCCTAATGTTACATGATTTTAAATAAAAGGAAAGATTGTCTAAAAATTGTCGCGGGGGAATTTGCAAATAGCGTCACTAATTTGGCA
In the case of B1, the binding signal (6xHis-PhoP~P [1]) is reported as ~10 fold more PhoP required than for pstS or phnD.

B2: ackA promoter fragment (dsDNA)
DNA 1: GATTCGCCGAAAACCAAGAAAAAGTCATGATGCTGTGCGATTACGTGTGCGGCAATCCGACTACCCGTTTAGAGGAGGAAAAAAACAATGGCAAAAATTCTCGCAGTCAACGCAGGCAGTTC
DNA 2: GAACTGCCTGCGTTGACTGCGAGAATTTTTGCCATTGTTTTTTTCCTCCTCTAAACGGGTAGTCGGATTGCCGCACACGTAATCGCACAGCATCATGACTTTTTCTTGGTTTTCGGCGAATC
B2: no binding (6xHis-PhoP); no binding (6xHis-PhoP~P [2]).

B3: poxL promoter fragment (dsDNA)
DNA 1: TTGATCCATGATCCTGATCATCATTAAGTTAATTTGTGAAAAAGGTTTACCAAGCATGTTATGGCGTGGTGATGCTGTATTAGTTCACTTGTTTGACTGTTATGGTGTCGTCG
DNA 2: CGACGACACCATAACAGTCAAACAAGTGAACTAATACAGCATCACCACGCCATAACATGCTTGGTAAACCTTTTTCACAAATTAACTTAATGATGATCAGGATCATGGATCAA
B3: no binding (6xHis-PhoP); no binding (6xHis-PhoP~P [2]).
